Measured values: patent US20140314790

Target: T1, N3-2A, Modulator of β-cleavage of APP (MoBA)
T1 chain: DAVYYCGLKY

B1: purified β-secretase (protein)
chain: ETDEEPEEPGRRGSFVEMVDNLRGKSGQGYYVEMTVGSPPQTLNILVDTGSSNFAVGAAPHPFLHRYYQRQLSSTYRDLRKGVYVPYTQGKWEGELGTDLVSIPHGPNVTVRANIAAITESDKFFINGSNWEGILGLAYAEIARPDDSLEPFFDSLVKQTHVPNLFSLQLCGAGFPLNQSEVLASVGGSMIIGGIDHSLYTGSLWYTPIRREWYYEVIIVRVEINGQDLKMDCKEYNYDKSIVDSGTTNLRLPKKVFEAAVKSIKAASSTEKFPDGFWLGEQLVCWQAGTTPWNIFPVISLYLMGEVTNQSFRITILPQQYLRPVEDVATSQDDCYKFAISQSSTGTVMGAVIMEGFYVVFDRARKRIGFAVSACHVHDEFRTAAVEGPFVTLDMEDCGYNIPQTDESTLMT
- activity of purified β-secretase on a fluorescent substrate (FRET assay): N3-2A did not inhibit the activity of purified β-secretase
